The data set “cross-linking” concerns the molecule itself. Nature of the data set: cross-linking.
The data set “FRET or BRET” concerns the molecule itself. Put plainly: FRET or BRET. (Bioluminescence resonance energy transfer reports proximity on the nanometre scale.)

Results on three proteins are retold here after article PMC5327651 (Virology, 2016).

As usually defined, the stoichiometry N is a count of units in the complex or per binding partner.

B1: WT rhTRIM5α CC-L2 peptide (residues 132-296) with an added C-terminal cysteine, fluorescently labelled (domain or fragment, rhesus macaque)
chain: LMEEVAQEYHVKLQTALEMLRQKQQEAEKLEADIREEKASWKIQIDYDKTNVSADFEQLREILDWEESNELQNLEKEEEDILKSLTKSETEMVQQTQYMRELISELEHRLQGSMMDLLQGVDGIIKRIENMTLKKPKTFHKNQRRVFRAPDLKGMLDMFRELTDAC
modifications: Alexa Fluor 488 C5-maleimide or Alexa Fluor 594 C5-maleimide on the added C-terminal cysteine
In the case of B1, the “stoichiometry N” value in “cross-linking” amounted to 2.

B2: RRV275-277AAA rhTRIM5α CC-L2 peptide (residues 132-296) with an added C-terminal cysteine, fluorescently labelled (domain or fragment, rhesus macaque)
chain: LMEEVAQEYHVKLQTALEMLRQKQQEAEKLEADIREEKASWKIQIDYDKTNVSADFEQLREILDWEESNELQNLEKEEEDILKSLTKSETEMVQQTQYMRELISELEHRLQGSMMDLLQGVDGIIKRIENMTLKKPKTFHKNQAAAFRAPDLKGMLDMFRELTDAC
modifications: Alexa Fluor 488 C5-maleimide or Alexa Fluor 594 C5-maleimide on the added C-terminal cysteine
With B2, in “FRET or BRET”, the binding result was “binds”.

B3: HKN271-273AAA rhTRIM5α CC-L2 peptide (residues 132-296) with an added C-terminal cysteine, fluorescently labelled (domain or fragment, rhesus macaque)
chain: LMEEVAQEYHVKLQTALEMLRQKQQEAEKLEADIREEKASWKIQIDYDKTNVSADFEQLREILDWEESNELQNLEKEEEDILKSLTKSETEMVQQTQYMRELISELEHRLQGSMMDLLQGVDGIIKRIENMTLKKPKTFAAAQRRVFRAPDLKGMLDMFRELTDAC
modifications: Alexa Fluor 488 C5-maleimide or Alexa Fluor 594 C5-maleimide on the added C-terminal cysteine
Regarding B3, the binding result in “FRET or BRET” is “binds”.
